The target in this assay is Notch-1 (endogenous; p300 or p120 not told) (human (endogenous in HeLa and BxPC3)) (UniProt P46531). In words: co-IP; HA-tagged c-Src wild type, Y416F or Y527F transiently transfected in HeLa; whole-cell lysate, IP with anti-Notch-1, blot with anti-HA and anti-Notch-1.

Where only a bound is given, the exact number is not on record here.

As for “HA-tagged c-Src Y416F (kinase dead) (enzyme)”, the fold reduction of binding against wild type c-Src was more than 3 fold.

The values above are taken from publication PMC3316571.
